Measurements taken from the supplement of paper PMC10126150.
± gives the standard deviation of the averaged measurements.

Tested on: ATP
Experiment: switch fluorescence ratio, 500 uM ATP over buffer (Cy3 cluster intensity, sum of 5 cycles each) (fold (ratio)); higher = stronger signal-on switching upon ATP binding; sequences stand for … in TCGTCGGCAGCGTCAGATGTGTATAAGAGACAGTTTTTTTTTTTTTTTTTTTTTTTTT…TC
Conditions: aptamer strand: ATP DNA aptamer (quencher-CACCTGGGGGAGTATTGCGGAGGAAGG + anchor), 100 nM annealed; ATP concentration: 500 uM
Method in brief: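 Five buffer/ATP imaging cycles were run on Cy3-labelled switching-strand clusters on a modified Illumina MiSeq flow-cell, with NaOH stripping and re-annealing between cycles. In each cycle, clusters annealed to 100 nM quencher-labelled ATP aptamer were imaged in selection buffer, then after 15 min with 500 uM ATP at 22 °C. Per cluster, the fluorescence ratio is summed target-cycle over summed buffer-cycle Cy3 intensity, averaged per switch-domain sequence. Only clusters within 100-1000 RFU were kept.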
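Note: ATP exposure 15 min at 22 °C before imaging.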

Row | Sequence | switch fluorescence ratio
1 | TCGAGGGGGC | 1.07 ± 0.17
2 | TCGAGTAGGG | 0.995 ± 0.016
3 | TCGAGTATCT | 0.999 ± 0.019
4 | TCGAGTATTC | 1.04 ± 0.013
5 | TCGAGTTGCA | 1 ± 0.033
6 | TCGAGTTTGG | 1.01 ± 0.022
7 | TCGATACGAT | 0.994 ± 0.018
8 | TCGATAGCTG | 0.935 ± 0.046
9 | TCGATAGGGG | 0.98 ± 0.054
10 | TCGATATTGG | 1.02 ± 0.022
11 | TCGATCCCGA | 1.017 ± 0.0072
12 | TCGATCGGGT | 0.991 ± 0.035
13 | TCGATGGCGC | 1.02 ± 0.023
14 | TCGATGGGGG | 0.942 ± 0.013
15 | TCGATTCGGT | 1.02 ± 0.026
16 | TCGATTGTGG | 1.02 ± 0.03
17 | TCGCAAAGGT | 1.34 ± 0.036
18 | TCGCACGTAT | 1.03 ± 0.043
19 | TCGCCAATTG | 1.0649 ± 0.00052
20 | TCGCCTGGCG | 0.972 ± 0.034
21 | TCGCGGCAAT | 3.06 ± 2.3
22 | TCGCGGGAAG | 1.015 ± 0.0054
23 | TCGCTAATTG | 1.04 ± 0.022
24 | TCGCTACCGA | 1.09 ± 0.04
25 | TCGCTAGATG | 1.4 ± 0.52

Row | Sequence | switch fluorescence ratio
26 | TCGCTGTTGT | 1.01 ± 0.0019
27 | TCGCTTGGCC | 1.03 ± 0.04
28 | TCGGAAAGGG | 0.9961 ± 0.0049
29 | TCGGAAGATT | 1.01 ± 0.034
30 | TCGGAAGGAC | 1.141 ± 0.011
31 | TCGGAAGGGC | 1.017 ± 0.0027
32 | TCGGAAGTCA | 1.012 ± 0.0042
33 | TCGGAATTTT | 1.03 ± 0.026
34 | TCGGACAGGC | 1.03 ± 0.035
35 | TCGGACGTAC | 1.98 ± 0.16
36 | TCGGACTTTT | 1.04 ± 0.012
37 | TCGGAGGGGC | 1.03 ± 0.013
38 | TCGGAGTCTG | 1.04 ± 0.056
39 | TCGGATGTGG | 1.01 ± 0.056
40 | TCGGATTATG | 0.9669 ± 0.0066
41 | TCGGCAAGTT | 1.2 ± 0.33
42 | TCGGCACGGA | 0.999 ± 0.031
43 | TCGGCCAGTT | 1.01 ± 0.037
44 | TCGGCGGGAG | 1.01 ± 0.042
45 | TCGGCGGGGA | 1.05 ± 0.14
46 | TCGGCGTCAG | 0.9817 ± 0.0041
47 | TCGGCTGCGT | 1.03 ± 0.018
48 | TCGGCTGTTG | 1 ± 0.028
49 | TCGGCTTTTT | 0.999 ± 0.025
50 | TCGGGAAAAA | 0.991 ± 0.032

Row | Sequence | switch fluorescence ratio
51 | TCGGGAATCG | 0.983 ± 0.027
52 | TCGGGAGGGT | 1.02 ± 0.023
53 | TCGGGATAAG | 1.01 ± 0.018
54 | TCGGGATAGT | 1.03 ± 0.039
55 | TCGGGCAACG | 1 ± 0.041
56 | TCGGGCCAGG | 1.1 ± 0.071
57 | TCGGGCTCGC | 0.9639 ± 0.0068
58 | TCGGGCTGGT | 0.977 ± 0.011
59 | TCGGGGAAAG | 1.04 ± 0.082
60 | TCGGGGAAGT | 1.04 ± 0.042
61 | TCGGGGAATA | 1.02 ± 0.014
62 | TCGGGGACGT | 1.062 ± 0.0057
63 | TCGGGGATCA | 0.9752 ± 0.0058
64 | TCGGGGCGAG | 1.02 ± 0.023
65 | TCGGGGCGTG | 1 ± 0.027
66 | TCGGGGCTGT | 0.993 ± 0.026
67 | TCGGGGGGA | 1.03 ± 0.034
68 | TCGGGGGGGG | 1 ± 0.036
69 | TCGGGGGTAG | 0.985 ± 0.014
70 | TCGGGGGTGC | 1.04 ± 0.033
71 | TCGGGGTCTT | 0.9941 ± 0.0029
72 | TCGGGGTGGG | 1.03 ± 0.043
73 | TCGGGGTGTA | 1 ± 0.011
74 | TCGGGTCGCC | 1 ± 0.044
75 | TCGGGTCGGG | 1 ± 0.021

Row | Sequence | switch fluorescence ratio
76 | TCGGGTGCGA | 1.04 ± 0.011
77 | TCGGGTTAGG | 0.998 ± 0.032
78 | TCGGGTTAGT | 1.005 ± 0.0081
79 | TCGGGTTCAG | 1 ± 0.034
80 | TCGGGTTGAG | 1.01 ± 0.067
81 | TCGGGTTTGT | 1.01 ± 0.011
82 | TCGGGTTTTC | 1 ± 0.039
83 | TCGGTAATC | 1.15 ± 0.0017
84 | TCGGTATGAA | 1.01 ± 0.018
85 | TCGGTATTTG | 0.967 ± 0.037
86 | TCGGTATTTT | 1.01 ± 0.026
87 | TCGGTCCCGG | 1 ± 0.065
88 | TCGGTCCCTT | 0.988 ± 0.035
89 | TCGGTCGGGC | 1.01 ± 0.013
90 | TCGGTCGTTT | 0.976 ± 0.015
91 | TCGGTGAGAG | 1.03 ± 0.019
92 | TCGGTGAGGT | 0.9988 ± 0.0027
93 | TCGGTGGGAG | 0.981 ± 0.048
94 | TCGGTGTCCG | 1.03 ± 0.055
95 | TCGGTGTTTT | 1.05 ± 0.055
96 | TCGGTTGAGA | 1.01 ± 0.021
97 | TCGGTTGGGT | 0.984 ± 0.038
98 | TCGGTTGGTA | 1 ± 0.042
99 | TCGGTTGGTT | 0.967 ± 0.023
100 | TCGGTTGTCT | 1.02 ± 0.052

Row | Sequence | switch fluorescence ratio
101 | TCGGTTTATG | 0.994 ± 0.023
102 | TCGGTTTCG | 0.989 ± 0.095
103 | TCGGTTTTGC | 0.982 ± 0.028
104 | TCGTAAAAA | 1.07 ± 0.13
105 | TCGTACCTTG | 1.01 ± 0.025
106 | TCGTAGATGT | 1 ± 0.026
107 | TCGTAGGGGA | 1.03 ± 0.025
108 | TCGTAGGGGG | 0.979 ± 0.072
109 | TCGTATTACA | 1.011 ± 0.0035
110 | TCGTATTCGG | 0.992 ± 0.025
111 | TCGTATTGAG | 0.9482 ± 0.0077
112 | TCGTCAGGTG | 2.48 ± 0.084
113 | TCGTCATGTT | 0.999 ± 0.015
114 | TCGTCCAAGT | 1.07 ± 0.066
115 | TCGTCCCTGT | 1.074 ± 0.003
116 | TCGTCCGGTA | 1.29 ± 0.04
117 | TCGTCTTATA | 0.991 ± 0.014
118 | TCGTGAAGGG | 0.979 ± 0.051
119 | TCGTGACGAA | 1.03 ± 0.02
120 | TCGTGAGGCT | 0.989 ± 0.036
121 | TCGTGCAAGT | 1.05 ± 0.063
122 | TCGTGCCAGG | 1.032 ± 0.01
123 | TCGTGGCATA | 1.11 ± 0.044
124 | TCGTGGGAAA | 2.11 ± 1.5
125 | TCGTGTACTA | 1.02 ± 0.035

Row | Sequence | switch fluorescence ratio
126 | TCGTTAATTA | 1.06 ± 0.026
127 | TCGTTAATTT | 1.014 ± 0.0029
128 | TCGTTACAGG | 1.045 ± 0.0051
129 | TCGTTACCCT | 1.02 ± 0.011
130 | TCGTTACGGG | 1.17 ± 0.26
131 | TCGTTAGAGG | 0.9718 ± 0.0073
132 | TCGTTATTCT | 1.04 ± 0.067
133 | TCGTTCGCTA | 3.15 ± 0.39
134 | TCGTTCTGAA | 0.974 ± 0.022
135 | TCGTTGCGAG | 0.9898 ± 0.0096
136 | TCGTTGGGAC | 0.979 ± 0.021
137 | TCGTTGGTCC | 1.026 ± 0.0048
138 | TCGTTGGTTG | 1.02 ± 0.051
139 | TCGTTTACAC | 1.01 ± 0.033
140 | TCGTTTACGC | 1.02 ± 0.08
141 | TCGTTTAGTG | 0.981 ± 0.018
142 | TCGTTTATTT | 1.02 ± 0.014
143 | TCGTTTCGCA | 1.11 ± 0.023
144 | TCGTTTGGAA | 1 ± 0.025
145 | TCGTTTGGGC | 1.02 ± 0.019
146 | TCGTTTGGTG | 0.986 ± 0.045
147 | TCGTTTTAGC | 1.004 ± 0.0032
148 | TCTAAAAGTG | 0.9752 ± 0.0022
149 | TCTAAAATTA | 1.007 ± 0.0046
150 | TCTAAATGTT | 0.985 ± 0.03

Row | Sequence | switch fluorescence ratio
151 | TCTAAGTCGG | 0.987 ± 0.015
152 | TCTAAGTCTT | 0.98 ± 0.042
153 | TCTACGAAGG | 1.034 ± 0.0012
154 | TCTACGGGGG | 1.032 ± 0.0024
155 | TCTAGACGTC | 0.9972 ± 0.0081
156 | TCTAGGATGG | 0.962 ± 0.023
157 | TCTAGGGTGC | 1.13 ± 0.042
158 | TCTATAAGGT | 0.99 ± 0.022
159 | TCTATAGTAA | 1.057 ± 0.0087
160 | TCTATCCCAG | 1.13 ± 0.092
161 | TCTATCTAGA | 0.988 ± 0.014
162 | TCTATGAGGG | 1.01 ± 0.023
163 | TCTATGCTTA | 1.01 ± 0.038
164 | TCTATTCTCC | 1.52 ± 0.72
165 | TCTCAAGTGG | 0.992 ± 0.031
166 | TCTCAGCAAA | 3.38 ± 0.53
167 | TCTCAGTCAC | 1.08 ± 0.018
168 | TCTCATGGAG | 1 ± 0.012
169 | TCTCCATTTA | 1.04 ± 0.015
170 | TCTCCCGGCA | 1.34 ± 0.2
171 | TCTCCCTTGT | 1.03 ± 0.024
172 | TCTCCTTTTT | 1.02 ± 0.053
173 | TCTCGAGGGA | 0.981 ± 0.01
174 | TCTCGGAAGA | 1.01 ± 0.022
175 | TCTCGGGATT | 1 ± 0.013

Row | Sequence | switch fluorescence ratio
176 | TCTCGTAACT | 1 ± 0.044
177 | TCTCTACTGG | 1.03 ± 0.058
178 | TCTCTTATGT | 0.985 ± 0.033
179 | TCTCTTCAGC | 1 ± 0.0026
180 | TCTCTTGCGG | 1.1 ± 0.2
181 | TCTGAAAAAG | 2.29 ± 1.9
182 | TCTGAAGATC | 1.06 ± 0.065
183 | TCTGACAGTT | 1.04 ± 0.029
184 | TCTGAGAGAG | 0.9823 ± 0.0032
185 | TCTGAGATAA | 1.0208 ± 0.00085
186 | TCTGAGTCCA | 1.032 ± 0.0022
187 | TCTGAGTTCA | 0.987 ± 0.019
188 | TCTGATTATG | 0.987 ± 0.011
189 | TCTGATTTGG | 0.978 ± 0.028
190 | TCTGCATGGT | 1.07 ± 0.013
191 | TCTGCCCCCC | 1.12 ± 0.042
192 | TCTGCTCTGG | 0.983 ± 0.03
193 | TCTGCTTGGG | 1.09 ± 0.13
194 | TCTGGAATTG | 1.01 ± 0.03
195 | TCTGGACATT | 1.01 ± 0.023
196 | TCTGGGAGGG | 1.03 ± 0.047
197 | TCTGGGCCAT | 1.29 ± 0.43
198 | TCTGGGCTTG | 0.999 ± 0.015
199 | TCTGGGGCTT | 1.0237 ± 0.00017
200 | TCTGGGGGAC | 1.05 ± 0.015
